Measured values: patent US20150252099A1 (TRELLIS BIOSCIENCE, published 2015)
Substitutions are numbered along the chain they refer to. Like-named read-outs stand apart in the source and are kept apart here.

Experiments:
[1] = target: T1, CMV gB protein (strain AD169), purified (human cytomegalovirus (CMV), strain …, UniProt P06473 32-906, limits assumed); test: cell-based or functional assay
[2] = target: T1, CMV gB protein (strain AD169), purified; test: ForteBio biosensor, antibody coupled to the probe, gB in solution
Protocol: (§1) In this method, the carboxylic acid groups on Amine Reactive Biosensors were activated with EDC/NHS. […] The gB protein was incubated with the Ab-coated probe and rates of association to and dissociation from the Ab-coated probe were determined by the FortéBio® instrument.

[3] = target: T2, AD-2 peptide NETIYNTTLKYGDV (human cytomegalovirus (CMV)); test: ELISA binding assay on the AD-2 peptide
T2 construct: also called peptide AD-2; conserved peptide designated AD-2
T2 peptide: NETIYNTTLKYGDV

[4] = target: T1, CMV gB protein (strain AD169), purified; test: told with the gB binding kinetics (ForteBio biosensor); reference mAb 4A2
Protocol: as §1

[5] = target: T1, CMV gB protein (strain AD169), purified; test: ForteBio biosensor, antibody coupled to the probe, gB in solution; remark: listed apart in the source
Protocol: as §1

T1 sequence (P06473 32-906 limits assumed): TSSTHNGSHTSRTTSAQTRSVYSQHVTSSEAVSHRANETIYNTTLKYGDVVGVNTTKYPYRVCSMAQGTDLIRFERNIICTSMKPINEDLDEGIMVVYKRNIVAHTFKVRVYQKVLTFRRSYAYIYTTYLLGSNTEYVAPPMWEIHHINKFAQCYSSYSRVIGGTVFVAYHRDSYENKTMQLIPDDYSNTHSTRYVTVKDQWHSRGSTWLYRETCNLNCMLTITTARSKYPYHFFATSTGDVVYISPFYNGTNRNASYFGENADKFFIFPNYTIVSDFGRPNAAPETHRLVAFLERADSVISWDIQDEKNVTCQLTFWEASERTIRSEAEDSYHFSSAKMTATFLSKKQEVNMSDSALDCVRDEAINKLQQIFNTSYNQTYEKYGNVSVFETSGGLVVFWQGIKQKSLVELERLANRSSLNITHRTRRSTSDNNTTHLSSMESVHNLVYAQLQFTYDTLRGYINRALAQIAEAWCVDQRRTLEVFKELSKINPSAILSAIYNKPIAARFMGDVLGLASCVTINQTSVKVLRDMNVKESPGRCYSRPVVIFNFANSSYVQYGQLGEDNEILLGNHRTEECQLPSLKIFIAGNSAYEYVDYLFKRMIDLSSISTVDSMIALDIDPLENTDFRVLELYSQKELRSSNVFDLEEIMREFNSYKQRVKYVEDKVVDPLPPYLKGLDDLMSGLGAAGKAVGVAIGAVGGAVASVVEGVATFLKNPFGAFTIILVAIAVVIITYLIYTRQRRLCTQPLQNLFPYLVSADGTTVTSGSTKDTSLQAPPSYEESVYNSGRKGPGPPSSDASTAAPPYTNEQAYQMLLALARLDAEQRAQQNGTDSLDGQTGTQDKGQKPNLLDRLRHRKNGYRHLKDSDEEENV

B1: mAb 19B10 (antibody, V domains shown)
VH: QVQLQQSGPGLVKPSQTLSLTCTVSGGSISSGDFCWNWIRQPPGKGLEWIGYICYTGDTYYNPPLNSRVTISVDRSRNQISLRLSSVTAADTAVYYCAREDRRQLHSRPYFYYGLDVWGRGTKVTVSS
VL: EIVMTQSPLSLPVTPGETASISCRSSQSLLHSNGHNYLDWYLQKPGQSPHLLIYLGSIRASGVPDRFSGSGTGTDFTLKISRVEAEDVGVYYCMQALQTPNTFGQGTKLEIRR
notes: Human mAb
- IC50 (µg/mL), neutralizing potency [1]: 0.04 µg/mL
- Kd [2]: 0.697 nM
- binding result [3]: no binding

B2: MAB310 (antibody, V domains shown)
VH: QVQLVQSGGGVVQPGTSLRLSCAASGFMFNTYNMHWVRQAPGKGLEWVAVISNDGTYKYSADSLKGRFSISRDNSKNTLYLHMNSLRPDDTAVYYCARDGRSVGGFSGILDPWGQGTLVTVSS
VL: EIVLTQSPATLSLSPGDRATLSCRASQTVGRYLAWYQQKPGQAPRLLIYDASDRATGISARFSGSGSGTDFTLTISSLEPEDFAVYYCQQRSNWPPLTFGGGTKVEIKR
- fold higher potency than mAb 4A2 [4]: ~10 fold
- Kd [5]: 0.8 nM
- koff [5]: 1.2e-05 s⁻¹
- kon [5]: 16000 M⁻¹ s⁻¹

B3: MAB313 (antibody, V domains shown)
VH: QVQLVQSGGGVIQPGRSLTLSCAASGFTFSAYSLHWVRQAPGKGLQWVAVISFDGNFKHFADSLRGRFTISRDNSKNRFYLQMNGLRGEDTAVYYCARDGRAVDGFSGILDFWGQGTLVSVSS
VL: EIVMTQSPATLSLSPGERATLSCRASQSVGRYLTWFQQKPGQAPRLLIYDASERATGIPARFSGSGSGTDFTLTISSLEPEDFAVYYCQQRANWPPLTFGGGTKVEIK
- fold higher potency than mAb 4A2 [4]: ~10 fold
- Kd [5]: 0.7 nM
- koff [5]: 1.2e-05 s⁻¹
- kon [5]: 17000 M⁻¹ s⁻¹

B4: MAB345 (antibody, V domains shown)
VH: QVQLVESGGGVVQPGRSLRLSCAASGFTFSDYNMHWVRQAPGKGLEWVAVISIDGTYKYSADSVAGRFSLSRDNSKNTLYLQMNSLRPDDTAIYYCARDGRSVGGFSGILDPWGQGTLVTVSS
VL: B3 VL with E17D, R31S, T34A, F36Y, I48M, A51S, E53V, A92N
notes: also called ATCC PTA-121705
- Kd [5]: 2.3 nM
- koff [5]: 3.3e-05 s⁻¹
- kon [5]: 14000 M⁻¹ s⁻¹

B5: MAB338 (antibody, V domains shown)
VH: QVQLVESGGGVVQPGRSLRLSCSGSGFTFSDYNLHWVRQAPGKGLEWVAVISIDGTNKHHADSVKGRFTISRDNSKNTVNLEMSRLKAEDTAVYYCVRDGRSIGGYSGIFDPWGQGTLVTVSS
VL: B3 VL with M4L, G30D, T34A, F36Y, E53Q, T74A, F83V, A92S, V105I
- fold higher potency than mAb 4A2 [4]: ~10 fold

B6: mAb 4A2 (antibody, V domains shown)
VH: QVLLEESGGGVVQPGRSLRLSCAGSGFTFNRHGIHWVRQAPGKGLEWVTVISSDGANQQYAESVKGRFIISRDNSKNTVYLEMNSLRNDDTGVYFCARDGRCEGERCYSGVTDFWGQGTLV
VL: EIVLTQSPATLSLSPGERATLSCRASQNIGGYLAWFQQKAGQAPRLLIYDASIRATGIPARFSGSGSGTDFTLTISSLEPEDFAVYYCQQRNSWPPLTFG
notes: Human mAb
- IC50 (µg/mL), neutralizing potency [1]: 0.02 µg/mL
- Kd [2]: 0.168 nM
